Laboratory results taken from paper doi:10.1101/2024.11.23.624830 (bioRxiv, 2024).

Molecular target: the molecule itself
Assay: single-molecule photobleaching step analysis

B1: EmrE with a TC-tag (natural protein)
chain: MNPYIYLGGAILAEVIGTTLMKFSEGFTRLWPSVGTIICYCASFWLLAQTLAYIPTGIAYAIWSGVGIVLISLLSWGFFGQRLDLPAIIGMMLICAGVLIINLLSRSTPH
modifications: FlAsH dye bound covalently to the tetracysteine tag
- stoichiometry N: 2
